We go through one molecule from patent publication US8461106B2, “Biofilm prevention using lactoferrin” (The Trustees of the University of Pennsylvania, priority 2007, dated 2013).

This test has as its system Pseudomonas aeruginosa (PAO1). Put plainly: Plate based peg-lid crystal violet biofilm formation assay (Moskowitz). The class given is cell-based. Conditions: for detergent induced biofilm formation, effect of concomitant rhLactoferrin: 3 mg/ml rhLactoferrin. The procedure: Biofilm growth is determined using the plate based assay described by Moskowitz et al [Moskowitz, S. M., J. M. Foster, J. Emerson, et al., Clinically Feasible Biofilm Susceptibility Assay for Isolates of Pseudomonas Aeruginosa from Patients with Cystic Fibrosis. J Clin Microbiol, 2004. 42(5): p. 1915-22]. Pseudomonas aeruginosa (PAO1) cultures are grown to log phase (OD600=0.5) and 100 μl of culture is mixed with 25 μl of test 5× test substance and placed in 96 well flat bottom plates (Nalgene Nunc International, Rochester, N.Y.). A lid containing 96 polystyrene pegs (Nunc, TSP 96 well micro titer plate lid) is placed on top and the pegs are suspended in the wells. The lid is loosely fixed to the plate using a strip of parafilm (Menasha, Wis.). The plate is incubated without shaking at 37° C. for 20 hours at which time the lid containing the pegs is carefully removed from the 96 well culture plate and rinsed 3 times in sterile water. The pegs are placed in another 96 well plate containing Gram Crystal Violet (CV) (20 g/L CV, 8 g/L Ammonium Oxalate, 2% ethanol) for 15 min and then rinsed in sterile water three times to remove unbound crystal violet. The pegs are then immersed in a 96 well plate containing 200 ul of 100% EtOH for 15 minutes. The lid containing the pegs is removed from the eluted crystal violet and is read at 595 nm using a plate reader (Microplate Reader 680, Bio-Rad Hercules, Calif.).
These mutants are used as negative controls in each of the experiments to determine background signal above the blank.
The concentration of baby shampoo/chemical surfactant used for the clinical study was determined through in-vitro testing on planktonic pseudomonas aeruginosa and pre-formed pseudomonas aeruginosa biofilms. Bacterial and biofilm growth inhibition was determined using the plate based assay described in Moskowitz et al., (Clinically feasible biofilm susceptibility assay for isolates of Pseudomonas aeruginosa from patients with cystic fibrosis. J. Clinical Microbiology 2004; 42:1915-22). Briefly, PAO1 Pseudomonas aeruginosa bacterial strains were grown overnight. The following morning the culture was diluted to an OD600=0.1 with Luria-Bertani broth (LB) and the sample again diluted 1:100 in LB. […] At the completion of the incubation the lid containing the pegs was removed and processed for biofilm detection while the 96 well plate was analyzed for bacterial growth by determination of absorbance at 600 nm. […] The peg lid was then discarded and the eluted crystal violate was read on a microtiter plate reader (Microplate Reader 680, Bio-Rad Hercules, Calif.) at an optical density of 595 nm (OD595). […] Quantification of residual biofilms was performed as described above.

B1: rhLactoferrin: Recombinant human lactoferrin produced in Aspergillus niger, structurally identical to native human lactoferrin (protein, UniProt P02788 20-710, looked up)
Lactotransferrin: GRRRSVQWCAVSQPEATKCFQWQRNMRKVRGPPVSCIKRDSPIQCIQAIAENRADAVTLDGGFIYEAGLAPYKLRPVAAEVYGTERQPRTHYYAVAVVKKGGSFQLNELQGLKSCHTGLRRTAGWNVPIGTLRPFLNWTGPPEPIEAAVARFFSASCVPGADKGQFPNLCRLCAGTGENKCAFSSQEPYFSYSGAFKCLRDGAGDVAFIRESTVFEDLSDEAERDEYELLCPDNTRKPVDKFKDCHLARVPSHAVVARSVNGKEDAIWNLLRQAQEKFGKDKSPKFQLFGSPSGQKDLLFKDSAIGFSRVPPRIDSGLYLGSGYFTAIQNLRKSEEEVAARRARVVWCAVGEQELRKCNQWSGLSEGSVTCSSASTTEDCIALVLKGEADAMSLDGGYVYTAGKCGLVPVLAENYKSQQSSDPDPNCVDRPVEGYLAVAVVRRSDTSLTWNSVKGKKSCHTAVDRTAGWNIPMGLLFNQTGSCKFDEYFSQSCAPGSDPRSNLCALCIGDEQGENKCVPNSNERYYGYTGAFRCLAENAGDVAFVKDVTVLQNTDGNNNEAWAKDLKLADFALLCLDGKRKPVTEARSCHLAMAPNHAVVSRMDKVERLKQVLLHQQAKFGRNGSDCPDKFCLFQSETKNLLFNDNTECLARLHGKTTYEKYLGPQYVAGITNLKKCSTSPLLEACEFLRK
modifications: recombinant, Aspergillus niger
On to B1, for which the “detergent induced biofilm formation, effect of concomitant rhLactoferrin” value runs as follows: (induction by Curosurf, FIG. 5 bottom panel) “blunts the induction of biofilm formation”; (induction by Johnson and Johnson Baby Shampoo, FIG. 5 top panel) “blunts the induction of biofilm formation”. The “detergent induced biofilm formation, effect of rhLactoferrin” value (detergents in general, FIGS. 4 and 5) is on record as “inhibits detergent induced biofilm formation”. The “induction of biofilm formation by subtherapeutic concentrations of antibiotics, effect of added rhLactoferrin” value (subtherapeutic Cephalosporins and aminoglycosides, FIG. 3) is recorded as “blunted”.
